Assay: amylase study: sensory rating of vanilla custard desserts with added amylase
Type: in vivo, human
Procedure: The role of salivary amylase in modifying texture sensations was evaluated in the following examples, in which the level of amylase activity was varied within subjects, rather than between subjects. Alpha-amylase was added in varying concentrations to starch and CMC (non-starch)-based vanilla custard desserts. Additionally, amylase activity was inhibited to various degrees by adding the pharmaceutical amylase inhibitor Acarbose (CAS nr. 56180-94-0) in various concentrations to the same test foods.
Eighteen subjects, 11 females and 7 males aged between 18 and 34 yrs, participated the ‘amylase study’ and 7 different subjects, all females aged between 39 and 56 yrs, participated in the ‘acarbose study’. The subjects participating in the latter study had been informed about acarbose and its possibly side effects if swallowed. To avoid these side effects, subjects expectorated rather than swallowed the acarbose samples. All subjects signed consent forms expressing their willingness to participate in the studies, and all had previously been screened for olfactory and taste disorders and had received extensive training in the description of sensory mouthfeel and afterfeel attributes for semi-solid foods. Testing took place at the sensory facilities of TNO-Nutrition and Food Research in Zeist, The Netherlands.
For the ‘amylase study’, two commercially available full-fat vanilla custard desserts (3 wt % fat AH vanille vla or “AH”, Albert Heijn Corp., Zaandam, The Netherlands; and 3 wt % fat Boerenland via or “BL”, Campina Corp., Woerden, The Netherlands) were used as the two starch-based vanilla custard desserts. For the ‘acarbose study’, Boerenland via was used again but the Albert Heijn via was replaced by a low-fat dairy custard (0.1 wt % fat Creamex, Creamex Corp., Rijkervoort, The Netherlands).
In both studies, the effect of amylase and acarbose on starch-based custards was compared with their effects on non-starch custards to verify amylase-starch interactions. A non-starch custard was produced using full-fat (3 wt %) commercially available milk (Campina Corp., Woerden, The Netherlands) and adding 0.85 wt % of sodium carboxy methylcellulose (or “CMC”) (Akuell AF 3295, Akzo Nobel Corp., Amersfoort, The Netherlands), 6.25 wt % of sugar and 0.33 wt % of vanilla powder. Yellow colorant (Egg yellow, Supercook, Leeds, United Kingdom) was added at 3.33 ml/l custard to match the color of the starch-based custards.
For the amylase study, a bacterial α-amylase (from Bacillus licheniformis, with 15 wt % NaCl and 25 wt % sucrose, Sigma Corp., Zwijndrecht, The Netherlands) was used to prepare amylase solutions at concentrations of 40, 160, and 640 units in 100 μl aliquots of water. This concentration range is similar to the range of individual amylase levels found across a group of young and healthy subjects (Engelen, unpublished results). The amylase concentrations, including a control of 0 units, were added to 5 ml samples of the starch-based custards. Only the highest concentration, 640 units, and the control were added to 5 ml samples of the CMC custard.
Panelists were seated in sensory booths with appropriate ventilation and lighting. Testing took place over either 3 (‘amylase study’) or 1.5 (‘acarbose study’) sessions of 2 hours. Within each session, subjects were presented with 20 trials during which they received in the amylase study each of the three custards once with the various amounts of amylase and with two different processing instructions. Over the 3 sessions, each custard was presented 3 times in each condition. In the ‘acarbose study’, each of the three custards with various amounts of acarbose were presented twice in the first session, and once in the second half session. The stimulus presentation order was randomized per subject and per session. The trials were presented at an average rate of one trial per 5 minutes. A break separated the first and the second half of each session. […]

[1] = R, AH custard, amylase 40 units
[2] = R, AH custard, amylase 160 units
[3] = R, AH custard, amylase 640 units
[4] = R, BL custard, amylase 40 units
[5] = R, BL custard, amylase 160 units
[6] = R, BL custard, amylase 640 units
[7] = R, CMC custard, amylase 640 units
[8] = U, AH custard, amylase 40 units
[9] = U, AH custard, amylase 160 units
[10] = U, AH custard, amylase 640 units
[11] = U, BL custard, amylase 40 units
[12] = U, BL custard, amylase 160 units
[13] = U, BL custard, amylase 640 units
[14] = U, CMC custard, amylase 640 units

B1: Amylase: bacterial α-amylase from Bacillus licheniformis, with 15 wt % NaCl and 25 wt % sucrose, Sigma Corp. (protein, UniProt P06278 30-512, looked up)
Alpha-amylase: ANLNGTLMQYFEWYMPNDGQHWKRLQNDSAYLAEHGITAVWIPPAYKGTSQADVGYGAYDLYDLGEFHQKGTVRTKYGTKGELQSAIKSLHSRDINVYGDVVINHKGGADATEDVTAVEVDPADRNRVISGEHRIKAWTHFHFPGRGSTYSDFKWHWYHFDGTDWDESRKLNRIYKFQGKAWDWEVSNENGNYDYLMYADIDYDHPDVAAEIKRWGTWYANELQLDGFRLDAVKHIKFSFLRDWVNHVREKTGKEMFTVAEYWQNDLGALENYLNKTNFNHSVFDVPLHYQFHAASTQGGGYDMRKLLNSTVVSKHPLKAVTFVDNHDTQPGQSLESTVQTWFKPLAYAFILTRESGYPQVFYGDMYGTKGDSQREIPALKHKIEPILKARKQYAYGAQHDYFDHHDIVGWTREGDSSVANSGLAALITDGPGGAKRMYVGRQNAGETWHDITGNRSEPVVINSEGWGEFHVNGGSVSIYVQR
modifications: formulated with NaCl and sucrose
Question: What does the source list for B1?
Answer: decrease of creamy mouthfeel (AH custard, amylase added): up to 25%; airy-mo [1]: 25; bitter/chem-fl [1]: 30; creamy-af [1]: 38; creamy-mo [1]: 44; fatty-af [1]: 29; heterogeneous-mo [1]: 26; prickling-mo [1]: 19; rough-af [1]: 26; smooth-mo [1]: 65; sticky-af [1]: 28; temperature-mo [1]: 38; thick-mo [1]: 41; airy-mo [2]: 25; bitter/chem-fl [2]: 38; creamy-af [2]: 35; creamy-mo [2]: 37; fatty-af [2]: 31; heterogeneous-mo [2]: 29; prickling-mo [2]: 20; rough-af [2]: 25; smooth-mo [2]: 62; sticky-af [2]: 29; temperature-mo [2]: 35; thick-mo [2]: 38; airy-mo [3]: 25; bitter/chem-fl [3]: 44; creamy-af [3]: 34; creamy-mo [3]: 35; fatty-af [3]: 29; heterogeneous-mo [3]: 33; prickling-mo [3]: 25; rough-af [3]: 23; smooth-mo [3]: 61; sticky-af [3]: 29; temperature-mo [3]: 38; thick-mo [3]: 41; airy-mo [4]: 28; bitter/chem-fl [4]: 22; creamy-af [4]: 35; creamy-mo [4]: 43; fatty-af [4]: 28; heterogeneous-mo [4]: 24; prickling-mo [4]: 17; rough-af [4]: 28; smooth-mo [4]: 63; sticky-af [4]: 29; temperature-mo [4]: 37; thick-mo [4]: 41; airy-mo [5]: 29; bitter/chem-fl [5]: 32; creamy-af [5]: 35; creamy-mo [5]: 45; fatty-af [5]: 30; heterogeneous-mo [5]: 27; prickling-mo [5]: 19; rough-af [5]: 26; smooth-mo [5]: 63; sticky-af [5]: 29; temperature-mo [5]: 37; thick-mo [5]: 40; airy-mo [6]: 25; bitter/chem-fl [6]: 40; creamy-af [6]: 37; creamy-mo [6]: 37; fatty-af [6]: 30; heterogeneous-mo [6]: 32; prickling-mo [6]: 23; rough-af [6]: 26; smooth-mo [6]: 64; sticky-af [6]: 29; temperature-mo [6]: 37; thick-mo [6]: 38; airy-mo [7]: 36; bitter/chem-fl [7]: 45; creamy-af [7]: 39; creamy-mo [7]: 39; fatty-af [7]: 36; heterogeneous-mo [7]: 34; melting-mo [7]: 35; prickling-mo [7]: 25; rough-af [7]: 21; smooth-mo [7]: 47; sticky-af [7]: 37; temperature-mo [7]: 44; thick-mo [7]: 49; vanilla-fl [7]: 30; airy-mo [8]: 25; bitter/chem-fl [8]: 35; creamy-af [8]: 36; creamy-mo [8]: 44; fatty-af [8]: 29; heterogeneous-mo [8]: 28; prickling-mo [8]: 19; rough-af [8]: 30; smooth-mo [8]: 62; sticky-af [8]: 31; temperature-mo [8]: 41; thick-mo [8]: 39; airy-mo [9]: 27; bitter/chem-fl [9]: 37; creamy-af [9]: 37; creamy-mo [9]: 39; fatty-af [9]: 28; heterogeneous-mo [9]: 27; prickling-mo [9]: 19; rough-af [9]: 27; smooth-mo [9]: 65; sticky-af [9]: 28; temperature-mo [9]: 39; thick-mo [9]: 38; airy-mo [10]: 26; bitter/chem-fl [10]: 47; creamy-af [10]: 34; creamy-mo [10]: 36; fatty-af [10]: 28; heterogeneous-mo [10]: 28; prickling-mo [10]: 22; rough-af [10]: 27; smooth-mo [10]: 66; sticky-af [10]: 31; temperature-mo [10]: 40; thick-mo [10]: 32; airy-mo [11]: 27; bitter/chem-fl [11]: 27; creamy-af [11]: 37; creamy-mo [11]: 42; fatty-af [11]: 28; heterogeneous-mo [11]: 27; prickling-mo [11]: 17; rough-af [11]: 30; smooth-mo [11]: 65; sticky-af [11]: 31; temperature-mo [11]: 42; thick-mo [11]: 37; airy-mo [12]: 26; bitter/chem-fl [12]: 32; creamy-af [12]: 38; creamy-mo [12]: 43; fatty-af [12]: 29; heterogeneous-mo [12]: 27; prickling-mo [12]: 17; rough-af [12]: 31; smooth-mo [12]: 62; sticky-af [12]: 32; temperature-mo [12]: 42; thick-mo [12]: 41; airy-mo [13]: 27; bitter/chem-fl [13]: 38; creamy-af [13]: 35; creamy-mo [13]: 39; fatty-af [13]: 29; heterogeneous-mo [13]: 33; prickling-mo [13]: 20; rough-af [13]: 31; smooth-mo [13]: 66; sticky-af [13]: 34; temperature-mo [13]: 41; thick-mo [13]: 37; airy-mo [14]: 46; bitter/chem-fl [14]: 52; creamy-af [14]: 39; creamy-mo [14]: 40; fatty-af [14]: 41; heterogeneous-mo [14]: 38; melting-mo [14]: 32; prickling-mo [14]: 24; rough-af [14]: 21; smooth-mo [14]: 49; sticky-af [14]: 44; temperature-mo [14]: 48; thick-mo [14]: 53; vanilla-fl [14]: 29; effect on odor, mouthfeel or afterfeel attributes (non-starch CMC-based custard, added amylase): failed to affect any of the odor, mouthfeel or afterfeel attributes; intensity of bitter/chemical flavor, change when amylase added (non-starch CMC-based custard, p=0.01): increased; bitter/chemical flavor, change with increasing amylase concentration (starch-based custards): increased significantly; creamy mouthfeel, change with increasing amylase concentration (starch-based custards, p<0.0001): decreased; melting mouthfeel, change with increasing amylase concentration (starch-based custards, p=0.001): increased significantly; vanilla flavor, change with increasing amylase concentration (starch-based custards, p=0.001): decreased; thick mouthfeel, change with increasing amylase concentration (starch-based custards, p=0.004): decreased; heterogeneous mouthfeel, change with increasing amylase concentration (starch-based custards, p=0.006): increased significantly; fatty afterfeel, change with increasing amylase concentration (starch-based custards, p=0.05): decreased
